How the values were obtained:
[1] = molecular target: DS-Cav1-foldon-I53-50A (respiratory syncytial virus (RSV)); assay: SPR after heat stress of the antigen (70 °C, 1 h); 50 nM DS-Cav1
[2] = molecular target: DS-Cav1-foldon-I53-50 nanostructure (respiratory syncytial virus (RSV)); assay: as above

## D25 monoclonal antibody
[1]
  binding signal retained after 1 hour at 70 °C: 50%
[2]
  binding signal retained after 1 hour at 70 °C: 80%

Source: patent publication US20200397886A1
